± gives the standard deviation of the averaged measurements.
Experiment: total protein half-life in vivo (active degradation + dilution); higher = more stable protein
[1] = E. coli NCM3722 delta-clpP delta-lon delta-hslV, growth: N-lim chemostat, doubling time 6 h
[2] = E. coli NCM3722 delta-clpP, growth: N-lim chemostat, doubling time 6 h
[3] = E. coli NCM3722 delta-hslV, growth: N-lim chemostat, doubling time 6 h
[4] = E. coli NCM3722 delta-lon, growth: N-lim chemostat, doubling time 6 h
[5] = E. coli NCM3722 delta-smpB, growth: N-lim chemostat, doubling time 6 h
[6] = wild type E. coli NCM3722, growth: C-lim chemostat, doubling time 3 h
[7] = wild type E. coli NCM3722, growth: C-lim chemostat, doubling time 6 h
[8] = wild type E. coli NCM3722, growth: C-lim chemostat, doubling time 12 h
[9] = wild type E. coli NCM3722, growth: N-lim chemostat, doubling time 6 h
[10] = wild type E. coli NCM3722, growth: N-lim chemostat, doubling time 12 h
[11] = wild type E. coli NCM3722, growth: P-lim chemostat, doubling time 6 h
[12] = wild type E. coli NCM3722, growth: P-lim chemostat, doubling time 12 h

Sequence | total protein half-life in vivo [1] [h] | total protein half-life in vivo [2] [h] | total protein half-life in vivo [3] [h] | total protein half-life in vivo [4] [h] | total protein half-life in vivo [5] [h] | total protein half-life in vivo [6] [h] | total protein half-life in vivo [7] [h] | total protein half-life in vivo [8] [h] | total protein half-life in vivo [9] [h] | total protein half-life in vivo [10] [h] | total protein half-life in vivo [11] [h] | total protein half-life in vivo [12] [h]
MSVIKMTDLDLAGKRVFIRADLNVPVKDGKVTSDARIRASLPTIELALKQGAKVMVTSHLGRPTEGEYNEEFSLLPVVNYLKDKLSNPVRLVKDYLDGVDVAEGELVVLENVRFNKGEKKDDETLSKKYAALCDVFVMDAFGTAHRAQASTHGIGKFADVACAGPLLAAELDALGKALKEPARPMVAIVGGSKVSTKLTVLDSLSKIADQLIVGGGIANTFIAAQGHDVGKSLYEADLVDEAKRLLTTCNIPVPSDVRVATEFSETAPATLKSVNDVKADEQILDIGDASAQELAEILKNAKTILWNGPVGVFEFPNFRKGTEIVANAIADSEAFSIAGGGDTLAAIDLFGIADKISYISTGGGAFLEFVEGKVLPAVAMLEERAKK [P0A799] | 5.45 ± 0.47 | 5.27 ± 0.49 | 4.91 ± 0.11 | 5.68 ± 0.45 | 4.66 ± 0.14 | 3.28 ± 0.049 | 6.24 ± 0.46 | 12.8 ± 0.99 | 4.92 ± 0.11 | 8.6 ± 0.45 | 5.69 ± 0.4 | 12 ± 0.29
MRRFLTTLMILLVVLVAGLSALVLLVNPNDFRDYMVKQVAARSGYQLQLDGPLRWHVWPQLSILSGRMSLTAQGASQPLVRADNMRLDVALLPLLSHQLSVKQVMLKGAVIQLTPQTEAVRSEDAPVAPRDNTLPDLSDDRGWSFDISSLKVADSVLVFQHEDDEQVTIRNIRLQMEQDPQHRGSFEFSGRVNRDQRDLTISLNGTVDASDYPHDLTAAIEQINWQLQGADLPKQGIQGQGSFQAQWQESHKRLSFNQISLTANDSTLSGQAQVTLTEKPEWQLRLQFPQLNLDNLIPLNETANGENGAAQQGQSQSTLPRPVISSRIDEPAYQGLQGFTADILLQASNVRWRGMNFTDVATQMTNKSGLLEITQLQGKLNGGQVSLPGTLDATSINPRINFQPRLENVEIGTILKAFNYPISLTGKMSLAGDFSGADIDADAFRHNWQGQAHVEMTDTRMEGMNFQQMIQQAVERNGGDVKAAENFDNVTRLDRFTTDLTLKDGVVTLNDMQGQSPVLALTGEGMLNLADQTCDTQFDIRVVGGWNGESKLIDFLKETPVPLRVYGNWQQLNYSLQVDQLLRKHLQDEAKRRLNDWAERNKDSRNGKDVKKLLEKM | 6.52 ± 0.57 |  | 6.45 ± 0.47 | 6.24 ± 0.085 | 6.43 ± 0.59 | 3.54 ± 0.42 | 6.18 ± 0.13 | 11.4 ± 0.47 | 6.231 ± 0.012 | 13 ± 0.012 | 6.266 ± 0.044 | 11.5 ± 0.13
MILHPSLASANPLHYGRELTALDNLDFGSLHLDIEDSSFINNITFGMKTVQAVARQTPHPLSFHFMLARPQRWFNALAEIRPAWIFVHAETLDYPSETLTEIRHTGARAGLVFNPATPIDAWRYLASELDGVMVMTSEPDGQGQRFIPSMCEKIQKVRTAFPQTECWADGGITLAAAQQLAAAGAQHMVIGRALFSSSDYRATLAQFATL | 5.63 ± 0.16 |  |  |  |  |  | 1.44 | 0.974 |  |  |  | 
MLIFEGKEIETDTEGYLKESSQWSEPLAVVIAENEGISLSPEHWEVVRFVRDFYLEFNTSPAIRMLVKAMANKFGEEKGNSRYLYRLFPKGPAKQATKIAGLPKPVKCI [P0AB18] | 4.6 ± 0.063 | 3.82 ± 0.21 | 4.08 ± 0.12 | 6.01 ± 1.2 | 4.08 ± 0.076 | 2.84 ± 0.18 | 5.35 ± 0.47 | 12.8 ± 2.9 | 3.49 ± 0.44 | 6.82 ± 0.45 | 4.73 ± 0.007 | 10.19 ± 0.053
MKKLAIAGALLLLAGCAEVENYNNVVKTPAPDWLAGYWQTKGPQRALVSPEAIGSLIVTKEGDTLDCRQWQRVIAVPGKLTLMSDDLTNVTVKRELYEVERDGNTIEYDGMTMERVDRPTAECAAALDKAPLPTPLP | 7.04 ± 1.3 | 6.08 ± 0.62 | 6.36 ± 0.14 | 7.26 ± 0.97 | 6.12 ± 0.1 | 3 ± 0.23 | 6.16 ± 0.61 |  | 4.4 ± 3.5 | 12.5 ± 0.86 | 6.19 ± 0.15 | 12.4 ± 0.42
MKKTLLAAGAVLALSSSFTVNAAENDKPQYLSDWWHQSVNVVGSYHTRFGPQIRNDTYLEYEAFAKKDWFDFYGYADAPVFFGGNSDAKGIWNHGSPLFMEIEPRFSIDKLTNTDLSFGPFKEWYFANNYIYDMGRNKDGRQSTWYMGLGTDIDTGLPMSLSMNVYAKYQWQNYGAANENEWDGYRFKIKYFVPITDLWGGQLSYIGFTNFDWGSDLGDDSGNAINGIKTRTNNSIASSHILALNYDHWHYSVVARYWHDGGQWNDDAELNFGNGNFNVRSTGWGGYLVVGYNF [P0A927] |  | > 8 | 6.33 ± 0.09 | > 8 |  |  |  | 14.1 ± 1 | 6.53 ± 0.7 |  | 6.08 ± 0.99 | 
MNPAVDNEFQQWLSQINQVCGNFTGRLLTERYTGVLDTHFAKGLKLSTVTTSGVNLSRTWQEVKGSDDAWFYTVFQLSGQAIMEQDERQVQIGAGDITLLDASRPCSLYWQESSKQISLLLPRTLLEQYFPHQKPICAERLDADLPMVQLSHRLLQESMNNPALSETESEAALQAMVCLLRPVLHQRESVQPRRERQFQKVVTLIDDNIREEILRPEWIAGETGMSVRSLYRMFADKGLVVAQYIRNRRLDFCADAIRHAADDEKLAGIGFHWGFSDQSHFSTVFKQRFGMTPGEYRRKFR | 6.1 ± 0.083 |  |  | 1.98 |  | 0.364 ± 0.09 | 0.661 ± 0.089 | 0.65 |  |  |  | 
MQVSVETTQGLGRRVTITIAADSIETAVKSELVNVAKKVRIDGFRKGKVPMNIVAQRYGASVRQDVLGDLMSRNFIDAIIKEKINPAGAPTYVPGEYKLGEDFTYSVEFEVYPEVELQGLEAIEVEKPIVEVTDADVDGMLDTLRKQQATWKEKDGAVEAEDRVTIDFTGSVDGEEFEGGKASDFVLAMGQGRMIPGFEDGIKGHKAGEEFTIDVTFPEEYHAENLKGKAAKFAINLKKVEERELPELTAEFIKRFGVEDGSVEGLRAEVRKNMERELKSAIRNRVKSQAIEGLVKANDIDVPAALIDSEIDVLRRQAAQRFGGNEKQALELPRELFEEQAKRRVVVGLLLGEVIRTNELKADEERVKGLIEEMASAYEDPKEVIEFYSKNKELMDNMRNVALEEQAVEAVLAKAKVTEKETTFNELMNQQA [P0A850] | 6.11 ± 0.15 | 5.78 ± 0.82 | 5.67 ± 0.022 | 6 ± 0.012 | 4.96 ± 0.061 | 3.12 ± 0.18 | 5.738 ± 0.013 | 10.4 ± 0.89 | 5.35 ± 0.36 | 9.03 ± 0.57 | 5.01 ± 0.23 | 9.5 ± 0.3
